Source: patent publication US20180134804A1 (Memorial Sloan Kettering, published 2018)

Tests used:
[1] = molecular target: T1, HLA-A0201 on T2 cells without added peptide (human); experiment: T2 stabilization control, flow cytometry: BB7 staining of T2 cells pulsed with the peptide
T1 construct: Used as the negative target (T2 cells alone) and as the HLA-A0201 partner of the free peptides in the T2 stabilization assay; also called T2 alone; empty T2 cells

[2] = molecular target: T1, HLA-A0201 on T2 cells without added …; experiment: as above; remark: listed apart in the source
[3] = molecular target: T2, biotinylated Ras10-G12V/HLA-A0201 complex monomer (human, chain 1: C-terminal BirA substrate peptide (letters not given), enzymatically biotinylated by BirA); experiment: BLI (ForteBio Octet QK), biotinylated pMHC on streptavidin sensor, mAb at 10 µg/mL, 1:1 model partial fit
T2 construct: also called Ras G12V/HLA-A0201; Ras-G12V/HLA A0201 complex monomer; not shown: the BirA substrate peptide (BSP) at the C-terminus of the heavy chain

[4] = molecular target: T1, HLA-A0201 on T2 cells without added …; experiment: flow cytometry of T2 cells without peptide
[5] = molecular target: T3, Ras9-WT peptide/HLA-A0201 complex on peptide-pulsed T2 cells (human); experiment: flow cytometry, indirect staining of T2 cells pulsed with 50 ug/ml peptide
T3 construct: also called T2-0141WT

[6] = molecular target: T4, Ras9-G12V peptide/HLA-A0201 complex on peptide-pulsed T2 cells (human); experiment: as above
T4 construct: also called K-Ras9 G12V/HLA A0201; T2-014A1mut

[7] = molecular target: RAS10-G10A peptide/HLA-A0201 complex on peptide-pulsed T2 cells; experiment: flow cytometry of T2 cells pulsed with peptide
[8] = molecular target: T5, Ras10-WT peptide/HLA-A0201 complex on peptide-pulsed T2 cells (human); experiment: flow cytometry of T2 cells pulsed with peptide
T5 construct: also called Ras WT; T2-0142WT

[9] = molecular target: T6, Ras10-G12V peptide with alanine substitution at position 12/HLA-A0201 complex on peptide-pulsed T2 cells (human); experiment: flow cytometry of T2 cells pulsed with peptide
T6 construct: Position 12 counts on the Ras protein; also called peptide containing an alanine substitution at position 12

[10] = molecular target: Ras10-G12D peptide/HLA-A0201 complex on peptide-pulsed T2 cells (human); experiment: flow cytometry, indirect staining of peptide-pulsed T2 cells (peptide 50 µg/ml)
[11] = molecular target: T7, Ras10-G12C peptide/HLA-A0201 complex on peptide-pulsed T2 cells (human); experiment: as above
T7 construct: also called Ras-G12C

[12] = molecular target: T8, biotinylated Ras10-WT/HLA-A0201 complex monomer (human, chain 1: C-terminal BirA substrate peptide (letters not given), enzymatically biotinylated by BirA); experiment: BLI (ForteBio Octet QK), biotinylated pMHC on streptavidin sensor
T8 construct: also called Ras wt/HLA-A0201; not shown: the BirA substrate peptide (BSP) at the C-terminus of the heavy chain

[13] = molecular target: T8, biotinylated Ras10-WT/HLA-A0201 complex …; experiment: BLI (ForteBio Octet QK), biotinylated pMHC on streptavidin sensor, mAb at 10 µg/mL, 1:1 model partial fit
[14] = molecular target: RAS10-V9A peptide/HLA-A0201 complex on peptide-pulsed T2 cells; experiment: flow cytometry of T2 cells pulsed with peptide
[15] = molecular target: RAS10-G13A peptide/HLA-A0201 complex on peptide-pulsed T2 cells; experiment: flow cytometry of T2 cells pulsed with peptide
[16] = molecular target: T1, HLA-A0201 on T2 cells without added …; experiment: flow cytometry, scFv phage on T2 cells, anti-M13 detection
[17] = molecular target: T3, Ras9-WT peptide/HLA-A0201 complex on …; experiment: flow cytometry, scFv phage on peptide-loaded T2 cells, anti-M13 detection
[18] = molecular target: T5, Ras10-WT peptide/HLA-A0201 complex on …; experiment: as above

B1: RAS9-WT peptide (peptide)
peptide: LVVVGAGGV
notes: Free synthetic peptide
B1: binds [1].

B2: RAS10-G12S peptide (peptide)
peptide: KLVVVGASGV
notes: peptide of the complex m14; also called R10-G12S
B2: binds [2].

B3: Ras10-A11G peptide (peptide)
peptide: KLVVVGGVGV
notes: Position 11 counts on the Ras protein
B3: binds [2].

B4: Ras mAb #4, full-length human IgG1 (antibody, V domains shown)
VH: EVQLVQSGAEVKKPGASVKVSCKASGYTFTAYYLHWLRQAPGQGLEWMGWMNTNNGATRYAQKFQDRVTMTRDTSINTAYMEMSGLSSDDTAMYYCARGDISQDFADVWGQGTLVTVSS
VL: NFMLTQPHSVSESPGKTVTISCTGSSGSIASNYVQWYQQRPGSAPTILIYEDNKRPSGVPDRFSGSIDSSSNSASLTISGLKTGDEADYYCQSYDDINHWVFGGGTKLTVLG
notes: also called clone #4; Ras antibody #4
In the case of B4, the Kd [3] is reported as 9.19 nM, the koff [3] is reported as 0.00363 s⁻¹ and the kon [3] is reported as 396000 M⁻¹ s⁻¹. B4: no binding (tested: 10 ug/ml) [4]; no binding (tested: 10 ug/ml) [5]; no binding (tested: 10 ug/ml) [6]. B4: no binding (tested: 10 ug/ml) [7]; no binding (tested: 10 ug/ml) [8]; no binding (tested: 10 ug/ml) [9]. B4: no binding [10]; no binding [11]; no binding (tested: 10 µg/mL) [12].

B5: Ras mAb #7, full-length human IgG1 (antibody, V domains shown)
VH: EVQLVESGAEVKEPGSSVKVSCKASGGTFSSYGISWIRQAPGQGLEWMGEIIPIFGTPNYAQKFQGRVTITADESTSTAYVELSSLRSDDTAVYYCARSYYGYFDGWGQGTLVTVSS
VL: DIQMTQSPSSLSASVGDRVTITCQASQDISNYLNWYQQKPGKAPKLLIYDASNLETGVPSRFSGSGSGTDFTFTISSLQPDDFATYYCQQYKSYPLTFGGGTKVEIKR
notes: also called clone #7; Ras antibody #7
Work on B5 yielded a Kd [3] of 8.77 nM, a koff [3] of 0.000746 s⁻¹ and a kon [3] of 85000 M⁻¹ s⁻¹. For the same binder, the Kd [13] was 65.1 nM, the koff [13] was 0.00153 s⁻¹ and the kon [13] was 23400 M⁻¹ s⁻¹. B5: no binding (tested: 10 ug/ml) [4]; no binding (tested: 10 ug/ml) [5]; no binding (tested: 10 ug/ml) [6]. B5: binds [14]; binds [15]; no binding [10]. B5: no binding [11].

B6: scFv phage clone #2 (scFv)
scFv: QSVLTQPPSVSGAPGQRVTISCTGSSSNIGAGYDVHWYQQLPGTAPKLLIYGNSNRPSGVPDRFSGSKSGTSASLAITGLQAEDEADYYCQSYDSSLSGSVFGTGTKVTVLGSRGGGGSGGGGSGGGGSLEMAVQLVQSGAEVKKPGSSVKVSCKASGGTFSSYTINWVRQAPGQGLEWMGGFIPISGTVNYAQKFQGRVTITADESTSTAYMELSSLRSEDTAVYYCARPLDWTEDIWGQGTLVTVSS
notes: also called K-Ras G12V/HLA A0201 specific phage clone
B6: no binding [16]; no binding [17]; no binding [18].

B7: Ras mAb #2, full-length human IgG1 (antibody, V domains shown)
VH: QVQLVQSGAEVKKPGSSVKVSCKASGGTFSSYTINWVRQAPGQGLEWMGGFIPISGTVNYAQKFQGRVTITADESTSTAYMELSSLRSEDTAVYYCARPLDWTEDIWGQGTLVTVSS
VL: QSVLTQPPSVSGAPGQRVTISCTGSSSNIGAGYDVHWYQQLPGTAPKLLIYGNSNRPSGVPDRFSGSKSGTSASLAITGLQAEDEADYYCQSYDSSLSGSVFGTGTKVTVLG
notes: also called clone #2; Ras antibody #2
With B7 the Kd [3] was 8.88 nM, the binding result [4] was “no binding (tested: 10 ug/ml)” and the binding result [5] was “no binding (tested: 10 ug/ml)”. B7: no binding (tested: 10 ug/ml) [8]; no binding [10]; no binding (tested: 10 µg/mL) [12].
